Assays:
[1] = target: T1, B7-H3 (4Ig-B7-H3) endogenously expressed on MDA-MB-231 cells (UniProt Q5ZPR3 29-534, limits assumed); assay: FACS, MDA-MB-231 cells
T1 construct: whole, on cells; also called 细胞表面的B7-H3抗原
T1 sequence (looked up): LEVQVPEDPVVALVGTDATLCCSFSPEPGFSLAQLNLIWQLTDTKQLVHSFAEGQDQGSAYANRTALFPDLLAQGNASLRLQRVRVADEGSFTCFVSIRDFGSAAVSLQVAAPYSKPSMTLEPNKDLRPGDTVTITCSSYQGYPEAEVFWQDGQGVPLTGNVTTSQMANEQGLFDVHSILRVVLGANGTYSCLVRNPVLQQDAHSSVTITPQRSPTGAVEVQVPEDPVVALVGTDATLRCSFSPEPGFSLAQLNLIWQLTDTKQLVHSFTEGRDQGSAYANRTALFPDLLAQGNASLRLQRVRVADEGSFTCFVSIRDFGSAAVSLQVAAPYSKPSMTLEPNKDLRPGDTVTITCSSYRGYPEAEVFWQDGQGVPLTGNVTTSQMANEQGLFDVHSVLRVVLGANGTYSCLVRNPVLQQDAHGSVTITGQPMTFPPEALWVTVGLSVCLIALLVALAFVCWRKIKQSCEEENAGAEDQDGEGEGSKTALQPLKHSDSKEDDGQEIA

[2] = target: T2, 人B7-H3变体1(4Ig-B7-H3) on stable cells 293-h4Ig-B7-H3-copGFP (human, UniProt Q5ZPR3 29-534); assay: FACS, 293-h4Ig-B7-H3-copGFP stable cells
T2 construct: Full-length CDS cloned in pCDH-EF1-T2A-copGFP and expressed on stably transduced cells; residues left by T2A cleavage not described
T2 sequence: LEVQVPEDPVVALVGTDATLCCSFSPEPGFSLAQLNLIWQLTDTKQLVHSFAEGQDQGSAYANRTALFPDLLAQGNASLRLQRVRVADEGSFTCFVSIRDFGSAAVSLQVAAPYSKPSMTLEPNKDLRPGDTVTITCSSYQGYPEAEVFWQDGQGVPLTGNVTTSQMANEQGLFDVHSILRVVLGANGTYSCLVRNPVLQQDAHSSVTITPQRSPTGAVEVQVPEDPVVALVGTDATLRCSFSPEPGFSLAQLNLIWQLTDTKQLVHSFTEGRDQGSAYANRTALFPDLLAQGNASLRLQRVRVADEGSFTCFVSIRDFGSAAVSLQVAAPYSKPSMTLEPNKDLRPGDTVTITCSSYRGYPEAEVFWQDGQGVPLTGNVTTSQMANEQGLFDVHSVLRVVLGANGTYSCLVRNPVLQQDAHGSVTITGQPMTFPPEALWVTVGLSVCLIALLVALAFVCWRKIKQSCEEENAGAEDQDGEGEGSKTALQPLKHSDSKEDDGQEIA

[3] = target: T1, B7-H3 (4Ig-B7-H3) endogenously …; assay: FACS titration on MDA-MB-231 cells

| Binder | binding result [1] | binding result [2] | EC50 [3] [µg/mL] |
| --- | --- | --- | --- |
| scFv-27B4-H5-L4 (scFv, VH-linker-VL in phage display vector pXY, expressed in TG1, purified on a nickel column) scFv: QVQLVESGGGVVQPGRSLRLSCKASGYTFTTYWMHWVRQAPGKGLEWVAVIYPGDGGSYYTDSVKGRFTISRDNSKNTLYLQMNSLRAEDTAVYYCARGGNYISFPMYYWGQGTLVTVSSGGGGSGGGGSGGGGSGGGGASEIVLTQSPDFQSVTPKEKVTITCKASRGVSTALHWYQQKPDQSPKLLIKWASQSFSGVPSRFSGSGSGTDFTLTINSLEAEDAATYYCQQHYDTPYTFGQGTKLEIK | binds | binds |  |
| 嵌合抗体xw.M0883B9.27B4 (antibody, human IgG1, kappa, V domains shown, also called 嵌合抗体27B4; 27B4嵌合抗体) VH: QVQLQQSGAELARPGASVKLSCKASGYTFTTYWMQWIQQRPGQGLEWIGAIYPGDGGSRYTQRFKGKATMTADPSSSTVYMQLTSLASEDSAVYFCARGGNYISFPMYYWGQGTSVTVSP VL: DIVMTQSHKFMSTSVGDRVSITCKASRGVSTAVAWYQQKPGQSPKLLIYWASTRHTGVPDRFTGSGSGTDYTLTISSVQAEDLALYYCQQHYDTPYTFGGGTKLEIQR |  |  | 3.2 |
| scFv-27B4-H4-L5 (scFv, VH-linker-VL in phage display vector pXY, expressed in TG1, purified on a nickel column) scFv: EVQLVQSGAEVKKPGESLKISCKASGYTFTTYWIGWVRQMPGKGLEWMGIIYPGDGGSRYSPSFQGQVTISADKSISTAYLQWSSLKASDTAMYYCARGGNYISFPMYYWGQGTLVTVSSGGGGSGGGGSGGGGSGGGGASDIVMTQTPLSLSVTPGQPASISCKASRGVSTALYWYLQKPGQPPQLLIYWASNRFSGVPDRFSGSGSGTDFTLKISRVEAEDVGVYYCQQHYDTPYTFGQGTKLEIK | binds | binds |  |
| scFv-27B4-H5-L5 (scFv, VH-linker-VL in phage display vector pXY, expressed in TG1, purified on a nickel column) scFv: QVQLVESGGGVVQPGRSLRLSCKASGYTFTTYWMHWVRQAPGKGLEWVAVIYPGDGGSYYTDSVKGRFTISRDNSKNTLYLQMNSLRAEDTAVYYCARGGNYISFPMYYWGQGTLVTVSSGGGGSGGGGSGGGGSGGGGASDIVMTQTPLSLSVTPGQPASISCKASRGVSTALYWYLQKPGQPPQLLIYWASNRFSGVPDRFSGSGSGTDFTLKISRVEAEDVGVYYCQQHYDTPYTFGQGTKLEIK | binds | binds |  |
| h27B4-H4-L3 (antibody, human IgG1, kappa, V domains shown, Whole IgG, humanized; optimized hIgG1 (L235V, F243L, R292P, Y300L, P396L) and human kappa; also called zw.M0883B9.27B4Z02; 27B4Z02分子) VH: EVQLVQSGAEVKKPGESLKISCKASGYTFTTYWIGWVRQMPGKGLEWMGIIYPGDGGSRYSPSFQGQVTISADKSISTAYLQWSSLKASDTAMYYCARGGNYISFPMYYWGQGTLVTVSS VL: EIVMTQSPATLSVSPGERATLSCKASRGVSTALAWYQQKPGQAPRLLIYWASTRATGIPARFSGSGSGTEFTLTISSLQSEDFAVYYCQQHYDTPYTFGQGTKLEIKR | binds | binds |  |
| scFv-27B4-H4-L3 (scFv, Expressed from phage display vector pXY in TG1, purified on a nickel column) scFv: EVQLVQSGAEVKKPGESLKISCKASGYTFTTYWIGWVRQMPGKGLEWMGIIYPGDGGSRYSPSFQGQVTISADKSISTAYLQWSSLKASDTAMYYCARGGNYISFPMYYWGQGTLVTVSSGGGGSGGGGSGGGGSGGGGASEIVMTQSPATLSVSPGERATLSCKASRGVSTALAWYQQKPGQAPRLLIYWASTRATGIPARFSGSGSGTEFTLTISSLQSEDFAVYYCQQHYDTPYTFGQGTKLEIK | binds | binds |  |
| scFv-27B4-H5-L3 (scFv, VH-linker-VL in phage display vector pXY, expressed in TG1, purified on a nickel column) scFv: QVQLVESGGGVVQPGRSLRLSCKASGYTFTTYWMHWVRQAPGKGLEWVAVIYPGDGGSYYTDSVKGRFTISRDNSKNTLYLQMNSLRAEDTAVYYCARGGNYISFPMYYWGQGTLVTVSSGGGGSGGGGSGGGGSGGGGASEIVMTQSPATLSVSPGERATLSCKASRGVSTALAWYQQKPGQAPRLLIYWASTRATGIPARFSGSGSGTEFTLTISSLQSEDFAVYYCQQHYDTPYTFGQGTKLEIK | binds | binds |  |
| h27B4-H2-L2 (antibody, human IgG1, kappa, V domains shown, Whole IgG, humanized; optimized hIgG1 (L235V, F243L, R292P, Y300L, P396L) and human kappa; also called zw.M0883B9.27B4Z01) VH: QVQLVQSGAEVKKPGSSVKVSCKASGYTFTTYWISWVRQAPGQGLEWMGGIYPGDGGSNYAQKFQGRVTITADESTSTAYMELSSLRSEDTAVYYCARGGNYISFPMYYWGQGTLVTVSS VL: VIWMTQSPSLLSASTGDRVTISCKASRGVSTALAWYQQKPGKAPELLIYWASTLQSGVPSRFSGSGSGTDFTLTISCLQSEDFATYYCQQHYDTPYTFGQGTKLEIKR | binds | binds |  |
| h27B4-H4-L2 (antibody, human IgG1, kappa, V domains shown, Whole IgG, humanized; optimized hIgG1 (L235V, F243L, R292P, Y300L, P396L) and human kappa; also called zw.M0883B9.27B4Z04) VH: EVQLVQSGAEVKKPGESLKISCKASGYTFTTYWIGWVRQMPGKGLEWMGIIYPGDGGSRYSPSFQGQVTISADKSISTAYLQWSSLKASDTAMYYCARGGNYISFPMYYWGQGTLVTVSS VL: VIWMTQSPSLLSASTGDRVTISCKASRGVSTALAWYQQKPGKAPELLIYWASTLQSGVPSRFSGSGSGTDFTLTISCLQSEDFATYYCQQHYDTPYTFGQGTKLEIKR | binds | binds |  |
| h27B4-H2-L3 (antibody, human IgG1, kappa, V domains shown, Whole IgG, humanized; optimized hIgG1 (L235V, F243L, R292P, Y300L, P396L) and human kappa; also called zw.M0883B9.27B4Z03) VH: QVQLVQSGAEVKKPGSSVKVSCKASGYTFTTYWISWVRQAPGQGLEWMGGIYPGDGGSNYAQKFQGRVTITADESTSTAYMELSSLRSEDTAVYYCARGGNYISFPMYYWGQGTLVTVSS VL: EIVMTQSPATLSVSPGERATLSCKASRGVSTALAWYQQKPGQAPRLLIYWASTRATGIPARFSGSGSGTEFTLTISSLQSEDFAVYYCQQHYDTPYTFGQGTKLEIKR | binds | binds |  |
| scFv-27B4-H5-L1 (scFv, VH-linker-VL in phage display vector pXY, expressed in TG1, purified on a nickel column) scFv: QVQLVESGGGVVQPGRSLRLSCKASGYTFTTYWMHWVRQAPGKGLEWVAVIYPGDGGSYYTDSVKGRFTISRDNSKNTLYLQMNSLRAEDTAVYYCARGGNYISFPMYYWGQGTLVTVSSGGGGSGGGGSGGGGSGGGGASDIQMTQSPSSLSASMGDRVTITCKASRGVSTALNWYQQKPGKAPKLLIYWASSLQSGVPSRFSGSGSGTDFTLTISSLQPEDFATYYCQQHYDTPYTFGQGTKLEIK | binds | binds |  |
| scFv-27B4-H5-L2 (scFv, VH-linker-VL in phage display vector pXY, expressed in TG1, purified on a nickel column) scFv: QVQLVESGGGVVQPGRSLRLSCKASGYTFTTYWMHWVRQAPGKGLEWVAVIYPGDGGSYYTDSVKGRFTISRDNSKNTLYLQMNSLRAEDTAVYYCARGGNYISFPMYYWGQGTLVTVSSGGGGSGGGGSGGGGSGGGGASVIWMTQSPSLLSASTGDRVTISCKASRGVSTALAWYQQKPGKAPELLIYWASTLQSGVPSRFSGSGSGTDFTLTISCLQSEDFATYYCQQHYDTPYTFGQGTKLEIK | binds | binds |  |
| scFv-27B4-H4-L4 (scFv, VH-linker-VL in phage display vector pXY, expressed in TG1, purified on a nickel column) scFv: EVQLVQSGAEVKKPGESLKISCKASGYTFTTYWIGWVRQMPGKGLEWMGIIYPGDGGSRYSPSFQGQVTISADKSISTAYLQWSSLKASDTAMYYCARGGNYISFPMYYWGQGTLVTVSSGGGGSGGGGSGGGGSGGGGASEIVLTQSPDFQSVTPKEKVTITCKASRGVSTALHWYQQKPDQSPKLLIKWASQSFSGVPSRFSGSGSGTDFTLTINSLEAEDAATYYCQQHYDTPYTFGQGTKLEIK | binds | binds |  |
| MGA-271 (NCT02475213) (antibody, V domains shown) VH: EVQLVESGGGLVQPGGSLRLSCAASGFTFSSFGMHWVRQAPGKGLEWVAYISSDSSAIYYADTVKGRFTISRDNAKNSLYLQMNSLRDEDTAVYYCGRGRENIYYGSRLDYWGQGTTVTVSS VL: DIQLTQSPSFLSASVGDRVTITCKASQNVDTNVAWYQQKPGKAPKALIYSASYRYSGVPSRFSGSGSGTDFTLTISSLQPEDFATYYCQQYNNYPFTFGQGTKLEIK |  |  | 23.8 |

From CN113683697A (SHANGHAI XIANGYAO BIOTECHNOLOGY CO LTD, dated 2021)
